Target: anti-CD19 CAR having an scFv derived from FMC63 (expressed on T cells) (Mus musculus (Mouse), UniProt P01644 1-106)
Experiment: cell-based or functional assay

anti-CD19 CAR having an scFv derived from FMC63 (expressed on T cells), sequence (VH, as listed by the source, chain 1 of 2): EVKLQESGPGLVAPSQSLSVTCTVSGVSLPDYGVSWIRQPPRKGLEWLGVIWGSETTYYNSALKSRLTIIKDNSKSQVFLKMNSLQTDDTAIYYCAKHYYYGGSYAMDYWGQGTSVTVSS
anti-CD19 CAR having an scFv derived from FMC63 (expressed on T cells), sequence (P01644 other isoform, or with tags, fused parts or gaps, chain 2 of 2): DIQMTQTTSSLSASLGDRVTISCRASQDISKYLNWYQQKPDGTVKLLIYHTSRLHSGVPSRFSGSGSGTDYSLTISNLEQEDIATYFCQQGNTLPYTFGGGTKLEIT

B1: Anti-ID B-1 (FMC63-derived scFv-specific anti-idiotype antibody) (antibody, mouse IgG2a, kappa, V domains shown)
VH: EVQLQQSGPELVKPGASVKMSCKASGYTFTDYYMKWVKQCHGKSLEWIGDINPNNGGTDYNQNFKGKATLTVDKSSSTAYMQLNSLTSEDSAVYYCAREGNNYGSRDAMDYWGQGTSVTVSS
VL: QIVLTQSPALMSASPGEKVTMTCSASSGVIYMYWYQQKPRSSPKPWIYLTSNLASGVPARFSGSGSGTSYSLTISSMEAEDAATYYCQQWSSNPLTFGAGTKLELKR
B1 was tested. Which “fold expansion of CAR-expressing (EGFRt+) CD4+ T cells cultured alone with anti-ID B-1 conjugated beads, up to 9 days” value did it give?
Its value is > 60 fold.

Reference: patent US20230242654A1 (published 2023)
